Assay results as given in the supplement of paper PMC9170038.

Test system: MS2 coat protein
Test: apparent KD of MS2 coat protein; designed switch direction (-1 OFF switch, 1 ON switch): 1; higher = weaker reporter binding
Procedure, shortened: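 Each step of the titration lasted 0.8–1.5 h at the lowest concentration and 10–20 min at the highest. The protein, SNAP-549-labelled MS2 coat protein, went from 0.7 or 1.5 nM doubling to 3 µM over RNA switches transcribed on Illumina chips by stalled E. coli RNA polymerase. Normalised cluster fluorescence was curve-fitted, and the per-design median over clusters is given as apparent KD.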

[1] = Eterna round: R95, input ligand: FMN 200 uM
[2] = Eterna round: R95, input ligand: microRNA oligo, concentration not stated
[3] = Eterna round: R95, input ligand: none
[4] = input ligand: microRNA oligo, concentration not stated

| Sequence | apparent KD of MS2 coat protein [1] [nM] | apparent KD of MS2 coat protein [2] [nM] | apparent KD of MS2 coat protein [3] [nM] | apparent KD of MS2 coat protein (input ligand: FMN 200 uM) [nM] | apparent KD of MS2 coat protein [4] [nM] | apparent KD of MS2 coat protein (input ligand: none) [nM] |
| --- | --- | --- | --- | --- | --- | --- |
| GCGGCGGCACGGCAGGAUAUGAUAUAACCUACAUGAGGAUCACCCAUGUCGGCGGGUUGCAAAAUUCAGAAGGGCCCUGUAGGCC [Inberere] (puzzle: Same State 2) | 21.8 | 34.4 | 37.2 |  |  |  |
| AGUCCAGCCUGAGCUGGACAAAAGCAUGUACAUGAGGAUCACCCAUGUUCAUGUACAAGCUUUUUGCUCGUCUUGGA [salish99_208a_r3_103x] (puzzle: Sensor for hsa-mir-208a) | 350 | 16.2 | 505 |  |  |  |
| AGAUCAUGACGAGGAUAUGGUACAUGAGGAUCACCCAUGUAUGUAUCAUAACGCGAAUGACGAAACCAGAAGGCGUCGUGGUCA [JL SSNG2 1.11] (Eterna round: R96, puzzle: Same State NG 2) |  |  |  | 10.2 | 14.6 | 14.9 |
| UAGAAACAUGAGGAUCACCCAUGUGGGUUAAACACAGGAUAUCACGCCAAAAGAAAAGCGUGAGAAGGGUGACCGA [Xeusisus] (Eterna round: R96, puzzle: Same State 1) |  |  |  | 254 | 696 | 107 |
| AAGACAUUUGCUUAGGAUAUACAGGGCUCCACAUGAGGAUCACCCAUGUUAAAAGAGGAGUAAAUGUAGAAGGAAGCCUCCAAUA [Zazaes] (puzzle: Same State 2) | 19.1 | 59.8 | 66.3 |  |  |  |
| GGACGUCGAUAAUAUAAUCUCACAUGAGGAUCACCCAUGUCACAGGAUAUGGAUCCUAAUUGGAUCCAGAAGGGUGCGACGUCC [Fiskers NG3ss - 35] (Eterna round: R96, puzzle: Same State NG 3) |  |  |  | 73.3 | 235 | 373 |
| UUAAUGAUGAUAGGAUAUACAUGAGGAAUUCUCGUAGAAGGAUCAUGACAUGAGGAUCACCCAUGUAUCGCUCGAAAGAGCGUA [Mat - Same State NG 1 - JL mod - D33] (Eterna round: R96, puzzle: Same State NG 1) |  |  |  | 570 | 234 | 205 |
| UAAAAACAUGAGGAUCACCCAUGUGAAAAUAUGGGAGGAUAUACAAAGACGAGAGUCAAAGUAGAAGGCCUAAAAU [Mat - Same State 1 - Eli mod - D88] (Eterna round: R96, puzzle: Same State 1) |  |  |  | 21.9 | 68.3 | 86.6 |
| UGUUAACAUGAGGAUCACCCAUGUCAAAUGAAUCGAGGAUAUGGUAAGUAAUAAGAUAAUCUAGAAGGCGAAGUUG [Altered State 1-23 - Jieux - Same State 1] (puzzle: Same State 1) | 42.6 | 55.8 | 58 |  |  |  |
| GCUAGGAAAUAAGCCAACAUGAGGAUCACCCAUGUAUGUUGGUAGGAUAUCGUAUGCAAAGCAUACGAGAAGGGCUAACCUAGC [Mat - Same State NG 3 - JL Mod - D71] (Eterna round: R96, puzzle: Same State NG 3) |  |  |  | 69.5 | 62.8 | 76 |
| GGUAGGUUACUACCAAACAUGAGGAUCACCCAUGUAAGUGGGAAGGAUAUGGUACCUUUUAGGUACCAGAAGGUCCAUAAAAUU [JL Fiskers NG3ss - 2 mod 7] (Eterna round: R96, puzzle: Same State NG 3) |  |  |  | 314 | 355 | 2090 |
| CGUCGCUGUCGAGAGGAUAUGCGGUGAUGGACAUGAGGAUCACCCAUGUUAGCGAUAGCAUCGCGGCAGAAGGCUCUUACGACUG [Soteed Omei mod 28] (puzzle: Same State 2) | 18.6 | 19.8 | 23.7 |  |  |  |
| AGAGUGUAUCCACAGGAUAUGCGAGCUGACACAUGAGGAUCACCCAUGUAGUCCUAAAGGGCCAAGCAGAAGGGUGGUAAAGCUC [Oneson] (puzzle: Same State 2) | 17.5 | 28.9 | 33.9 |  |  |  |
| AGCUAUCGAAAACGAUAGCAUAAGCAUGUACAUGAGGAUCACCCAUGUCAUGUACAAGCUUUUUGCUCGUCUUAAAA [JL zipper 27] (Eterna round: R96, puzzle: Sensor for hsa-mir-208a) |  |  |  | 411 | 14.3 | 426 |
| UGUACCUUCACAGGAUAUCAUGCGAAAAUUGCGUGAGAAGGGUGAAUACUGUCUUUCUAAGAGUACAUGAGGAUCACCCAUGUA [SameState NG1 #60] (Eterna round: R96, puzzle: Same State NG 1) |  |  |  | 50 | 56.1 | 73.8 |
| AAAAGAAACAUGUACCUGAGUACAUGAAAACAUGAGGAUCACCCAUGUAAUAAGUGGGUGUUUUGUCUUUGUCUUAU [JL pocket 34, mod 5] (Eterna round: R96, puzzle: Sensor for hsa-mir-208a) |  |  |  | 50.8 | 119 | 51.8 |
| UGUUGUAUUACAGGAUAUCUAGUAUUUUUAUCUAGAGAAGGGUAUUCACAUGAGGAUCACCCAUGUAUAUACGAGGAAGUUGUG [JMF's solution 53] (Eterna round: R96, puzzle: Same State NG 1) |  |  |  |  | 25.9 |  |
| AGGCUCAGACGAGGAUAUAUGUCUCGAGCUUCGGCUCGAGACAUGAGGAUCACCCAUGUAAUAACAUAGAAGGCGUCUGAGCCA [SSNG2/1-A1] (Eterna round: R96, puzzle: Same State NG 2) |  |  |  | 15.7 | 24.9 | 37 |
| UCGGGCGUACUUGCUGACAUGAGGAUCACCCAUGUCCUUGCGCAGGAUAUGGUUCCGUUUCGGUUCCAGAAGGUCCUGGCUGCU [salish99_SSNG3_r04_319] (Eterna round: R96, puzzle: Same State NG 3) |  |  |  | 30.5 | 19.5 | 33.2 |
| ACCCAAAGUAUAUGGGAGCAAGCUUUUUAACAUGAGGAUCACCCAUGUACUCGUCUUAUAAGCAGUCGAAAGACUGC [Sensor 100 - 4] (Eterna round: R96, puzzle: Sensor for hsa-mir-208a) |  |  |  | 873 | 13.8 | 940 |
| ACUAGAAGCGGGCAAUAACACAUGAGGAUCACCCAUGUGACACAGGAUAUAACCAGAUCAGAAAGUUAGAAGGGUGAGCCCGCA [Usatbere] (Eterna round: R96, puzzle: Same State NG 3) |  |  |  | 13.2 | 19.9 | 27.4 |
| GACCGCGAGGAAGGAUAUGGAGCCUAAUAGGCUCCAGAAGGUCCAUAAAGGACAUGAGGAUCACCCAUGUGGGCUGAAGCGGUC [Mat - Same State NG 1 - JL mod - D74] (Eterna round: R96, puzzle: Same State NG 1) |  |  |  | 18.3 | 21.4 | 34.7 |
| GGCAUGCGGCGUACCGUAUGCUGGUAUGUACAUGAGGAUCACCCAUGUCAUGUACAGGCUUUUUGCUCGUCUUAUUG [JL-shm-2.40 JL mod] (puzzle: Sensor for hsa-mir-208a) | 128 | 28.7 | 157 |  |  |  |
